Results reported in patent US20200165325A1.

What was measured:
[1] = molecular target: HIV-1 Env of strain 1006_11_C3_1601 (HIV-1)
[2] = molecular target: HIV-1 Env of strain 231965.c01 (HIV-1)
[3] = molecular target: HIV-1 Env of strain 3301.v1.c24 (HIV-1)
[4] = molecular target: HIV-1 Env of strain 3817.v2.c59 (HIV-1)
[5] = molecular target: HIV-1 Env of strain 620345.c01 (HIV-1)
[6] = molecular target: HIV-1 Env of strain 62357_14_D3_4589 (HIV-1)
[7] = molecular target: HIV-1 Env of strain 6545.v4.c1 (HIV-1)
[8] = molecular target: HIV-1 Env of strain 703357.C02 (HIV-1)
[9] = molecular target: HIV-1 Env of strain 89-F1_2_25 (HIV-1)
[10] = molecular target: HIV-1 Env of strain C1080.c03 (HIV-1)
[11] = molecular target: HIV-1 Env of strain C2101.c01 (HIV-1)
[12] = molecular target: HIV-1 Env of strain CAP210.2.00.E8 (HIV-1)
[13] = molecular target: HIV-1 Env of strain Ce0682_E4 (HIV-1)
[14] = molecular target: HIV-1 Env of strain Du422.1 (HIV-1)
[15] = molecular target: HIV-1 Env of strain PVO.4 (HIV-1)
[16] = molecular target: HIV-1 Env of strain Q23.17 (HIV-1)
[17] = molecular target: HIV-1 Env of strain QH0692.42 (HIV-1)
[18] = molecular target: HIV-1 Env of strain R1166.c01 (HIV-1)
[19] = molecular target: HIV-1 Env of strain R2184.c04 (HIV-1)
[20] = molecular target: HIV-1 Env of strain T257-31 (HIV-1)
[21] = molecular target: HIV-1 Env of strain TRO.11 (HIV-1)
[22] = molecular target: HIV-1 Env of strain X1254_c3 (HIV-1)
[23] = molecular target: HIV-1 Env of strain ZM135M.PL10a (HIV-1)
[24] = molecular target: HIV-1 Env of strain ZM214M.PL15 (HIV-1)
[25] = molecular target: HIV-1 Env of strain ZM247v1(Rev-) (HIV-1)

Substance	In vitro neutralization IC80 [1]	In vitro neutralization IC80 [2]	In vitro neutralization IC80 [3]	In vitro neutralization IC80 [4]	In vitro neutralization IC80 [5]	In vitro neutralization IC80 [6]	In vitro neutralization IC80 [7]	In vitro neutralization IC80 [8]	In vitro neutralization IC80 [9]	In vitro neutralization IC80 [10]	In vitro neutralization IC80 [11]	In vitro neutralization IC80 [12]	In vitro neutralization IC80 [13]	In vitro neutralization IC80 [14]	In vitro neutralization IC80 [15]	In vitro neutralization IC80 [16]	In vitro neutralization IC80 [17]	In vitro neutralization IC80 [18]	In vitro neutralization IC80 [19]	In vitro neutralization IC80 [20]	also measured
NIH45-46 G54F IgG (antibody)	0.024 µg/mL	0.062 µg/mL	0.011 µg/mL	> 50 µg/mL	> 50 µg/mL	0.14 µg/mL	> 50 µg/mL	> 50 µg/mL	> 50 µg/mL	2.26 µg/mL	0.42 µg/mL	> 50 µg/mL	0.056 µg/mL	> 50 µg/mL	0.25 µg/mL	0.07 µg/mL	1.65 µg/mL	1.32 µg/mL	0.054 µg/mL	0.51 µg/mL	In vitro neutralization IC80 [21]: 0.3 µg/mL; In vitro neutralization IC80 [22]: 0.043 µg/mL; In vitro neutralization IC80 [23]: 0.43 µg/mL; In vitro neutralization IC80 [24]: 0.3 µg/mL; In vitro neutralization IC80 [25]: 2.45 µg/mL
NIH45-46 G54W IgG (antibody)	0.008 µg/mL	0.035 µg/mL	0.004 µg/mL	> 50 µg/mL	> 50 µg/mL	0.07 µg/mL	> 50 µg/mL	17.6 µg/mL	> 50 µg/mL	0.91 µg/mL	0.17 µg/mL	> 50 µg/mL	0.039 µg/mL	> 50 µg/mL	0.16 µg/mL	0.03 µg/mL	1.12 µg/mL	0.51 µg/mL	0.036 µg/mL	0.45 µg/mL	In vitro neutralization IC80 [21]: 0.13 µg/mL; In vitro neutralization IC80 [22]: 0.018 µg/mL; In vitro neutralization IC80 [23]: 0.16 µg/mL; In vitro neutralization IC80 [24]: 0.15 µg/mL; In vitro neutralization IC80 [25]: 2.6 µg/mL
NIH45-46 G54Y IgG (antibody)	0.021 µg/mL	0.054 µg/mL	0.014 µg/mL	> 50 µg/mL	> 50 µg/mL	0.09 µg/mL	> 50 µg/mL	30.6 µg/mL	> 50 µg/mL	1.83 µg/mL	0.27 µg/mL	> 50 µg/mL	0.065 µg/mL	> 50 µg/mL	0.18 µg/mL	0.06 µg/mL	1.5 µg/mL	0.84 µg/mL	0.045 µg/mL	0.67 µg/mL	In vitro neutralization IC80 [21]: 0.22 µg/mL; In vitro neutralization IC80 [22]: 0.041 µg/mL; In vitro neutralization IC80 [23]: 0.3 µg/mL; In vitro neutralization IC80 [24]: 0.23 µg/mL; In vitro neutralization IC80 [25]: 3.57 µg/mL
